We go through five molecules from US20030232325A1 (MOUNT SINAI SCHOOL OF MEDICINE OF NEW YORK UNIVERSITY, published 2003).

For test [1], the target named is T1, gst alone (glutathione-S-transferase expressed from pGEX-2TK) (UniProt P08515 1-218 = GST). As to the kind of experiment: far-western blot, 32P-labelled gst probe.
Test [2] has as its target T1, gst alone (glutathione-S-transferase …). As to the kind of experiment: far-western blot, 32P-labelled gst probe on bacterial extract.
The target in test [3] is VSV M protein (form used not stated; discussion of Example 9, data not shown) (vesicular stomatitis virus, UniProt P03519 1-229). As to the kind of experiment: far-western blot presumably; data not shown.

T1 sequence (P08515 whole entry): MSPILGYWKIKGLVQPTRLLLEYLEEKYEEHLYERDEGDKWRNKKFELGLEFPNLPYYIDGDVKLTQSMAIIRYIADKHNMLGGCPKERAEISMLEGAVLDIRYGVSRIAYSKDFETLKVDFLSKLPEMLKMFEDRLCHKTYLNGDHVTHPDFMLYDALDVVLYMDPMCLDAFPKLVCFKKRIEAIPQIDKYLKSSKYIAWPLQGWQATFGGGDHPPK

B1: gstRabM202 (gst fused to amino acids 1-202, full-length, of the rabies virus M protein) (other)
chain: MNLLRKIVKNRRDEDTQKSSPASAPLDDDDLWLPPPEYVPLKELTGKKNMRNFCINGRVKVCSPNGYSFRILRHILKSFDEIYSGNHRMIGLVKVVIGLALSGSPVPEGLNWVYKLRRTFIFQWADSRGPLEGEELEYSQEITWDDDTEFVGLQIRVIAKQCHIQGRVWCINMNPRACQLWSDMSLQTQRSEEDKDSSLLLE
Consider B1, for which the binding result in test [1] is recorded as “no binding”.

B2: gstRabM69 (gst fused to amino acids 1-69 of the rabies virus M protein) (other)
chain: MNLLRKIVKNRRDEDTQKSSPASAPLDDDDLWLPPPEYVPLKELTGKKNMRNFCINGRVKVCSPNGYSF
On to B2, for which the binding result in test [1] is listed as “no binding”.

B3: gstRabM52WT (gst fused to amino acids 1-52, wild type, of the rabies virus M protein) (other)
chain: MNLLRKIVKNRRDEDTQKSSPASAPLDDDDLWLPPPEYVPLKELTGKKNMRN
In the case of B3, in test [1], the binding result is recorded as “no binding”.

B4: gstVSVM74WT (gst fused to the N-terminal 74 amino acids of VSV (Ind.) M protein, wild type PY motif) (other)
chain: MSSLKKILGLKGKGKKSKKLGIAPPPYEEDTSMEYAPSAPIDKSYFGVDEMDTYDPNQLRYEKFFFTVKMTVRS
B4: the binding result in test [2] is “no binding”. Regarding TGLPTPWTVRYSKSKKREYFFNPETKHSQWEEPEG (other, domain: WW) [WW domain from ESS 1], the binding result in test [3] is “no binding”.
